Positions count from the first letter of the chain named. Names may count otherwise.
T1: TNFR1 (Homo sapiens, UniProt P19438)
T1 chain: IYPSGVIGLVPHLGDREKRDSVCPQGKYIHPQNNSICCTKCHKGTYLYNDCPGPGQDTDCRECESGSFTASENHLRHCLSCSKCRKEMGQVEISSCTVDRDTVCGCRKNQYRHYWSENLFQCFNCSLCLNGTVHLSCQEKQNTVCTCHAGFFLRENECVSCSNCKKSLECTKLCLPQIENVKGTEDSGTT

B1: K35T (designed binder)
chain: MTLQELLREEALRRAEAEAFRYALELLAEKFPEQTEYLLDLAEEIESQIRSLSGVDVEDVRKFLDKEWAWVKELLAEHPAELAEVEAARAARLAELRAEVEAKVAA
B2: R92E (designed binder)
chain: B1 chain with T35K, R92E
B3: A98Y (designed binder)
chain: B1 chain with T35K, A98Y
B4: D56V (designed binder)
chain: B1 chain with T35K, D56V
B5: L41N (designed binder)
chain: B1 chain with T35K, L41N
B6: A105Q (designed binder)
chain: B1 chain with T35K, A105Q
B7: E29A (designed binder)
chain: B1 chain with E29A, T35K
B8: A42S (designed binder)
chain: B1 chain with T35K, A42S
B9: L41H (designed binder)
chain: B1 chain with T35K, L41H
B10: Q48W (designed binder)
chain: B1 chain with T35K, Q48W
B11: A17G (designed binder)
chain: B1 chain with A17G, T35K
B12: L26W (designed binder)
chain: B1 chain with L26W, T35K
B13: E81H (designed binder)
chain: B1 chain with T35K, E81H
B14: A91Q (designed binder)
chain: B1 chain with T35K, A91Q
B15: A105M (designed binder)
chain: B1 chain with T35K, A105M
B16: Q48L (designed binder)
chain: B1 chain with T35K, Q48L
B17: A106R (designed binder)
chain: B1 chain with T35K, A106R
B18: E95Q (designed binder)
chain: B1 chain with T35K, E95Q
B19: A11H (designed binder)
chain: B1 chain with A11H, T35K
B20: K66T (designed binder)
chain: B1 chain with T35K, K66T
B21: W68C (designed binder)
chain: B1 chain with T35K, W68C
B22: V55L (designed binder)
chain: B1 chain with T35K, V55L
B23: W68P (designed binder)
chain: B1 chain with T35K, W68P
B24: E77H (designed binder)
chain: B1 chain with T35K, E77H
B25: V71N (designed binder)
chain: B1 chain with T35K, V71N
B26: M1R (designed binder)
chain: B1 chain with M1R, T35K
B27: L12N (designed binder)
chain: B1 chain with L12N, T35K
B28: E46P (designed binder)
chain: B1 chain with T35K, E46P
B29: F63R (designed binder)
chain: B1 chain with T35K, F63R
B30: K103H (designed binder)
chain: B1 chain with T35K, K103H
B31: A83K (designed binder)
chain: B1 chain with T35K, A83K
B32: A87S (designed binder)
chain: B1 chain with T35K, A87S
B33: R97G (designed binder)
chain: B1 chain with T35K, R97G
B34: I45T (designed binder)
chain: B1 chain with T35K, I45T
B35: E9L (designed binder)
chain: B1 chain with E9L, T35K
B36: V71E (designed binder)
chain: B1 chain with T35K, V71E
B37: V57H (designed binder)
chain: B1 chain with T35K, V57H
B38: L24R (designed binder)
chain: B1 chain with L24R, T35K
B39: A94C (designed binder)
chain: B1 chain with T35K, A94C
B40: E99F (designed binder)
chain: B1 chain with T35K, E99F
B41: W70E (designed binder)
chain: B1 chain with T35K, W70E
B42: S47M (designed binder)
chain: B1 chain with T35K, S47M
B43: E16M (designed binder)
chain: B1 chain with E16M, T35K
B44: A94W (designed binder)
chain: B1 chain with T35K, A94W
B45: V57E (designed binder)
chain: B1 chain with T35K, V57E
B46: Y22M (designed binder)
chain: B1 chain with Y22M, T35K
B47: T2F (designed binder)
chain: B1 chain with T2F, T35K
B48: G54A (designed binder)
chain: B1 chain with T35K, G54A
B49: L39E (designed binder)
chain: B1 chain with T35K, L39E
B50: V55Q (designed binder)
chain: B1 chain with T35K, V55Q
B51: S53K (designed binder)
chain: B1 chain with T35K, S53K
B52: E86F (designed binder)
chain: B1 chain with T35K, E86F
B53: W70L (designed binder)
chain: B1 chain with T35K, W70L
B54: E18H (designed binder)
chain: B1 chain with E18H, T35K
B55: A15V (designed binder)
chain: B1 chain with A15V, T35K
B56: V71G (designed binder)
chain: B1 chain with T35K, V71G
B57: E33D (designed binder)
chain: B1 chain with E33D, T35K
B58: R21E (designed binder)
chain: B1 chain with R21E, T35K
B59: E5T (designed binder)
chain: B1 chain with E5T, T35K

Molecular target: T1, TNFR1
Assay: yeast display SC50

apparent Kd (screen) | Binder
539 pM | B1
1050 pM | B2
539 pM | B3
2730 pM | B4
2050 pM | B5
539 pM | B6
718 pM | B7
539 pM | B8
13800 pM | B9
29500 pM | B10
539 pM | B11
405 pM | B12
446 pM | B13
490 pM | B14
653 pM | B15
2730 pM | B16
539 pM | B17
446 pM | B18
718 pM | B19
956 pM | B20

apparent Kd (screen) | Binder
2480 pM | B21
653 pM | B22
7780 pM | B23
653 pM | B24
869 pM | B25
593 pM | B26
446 pM | B27
490 pM | B28
9410 pM | B29
490 pM | B30
539 pM | B31
653 pM | B32
539 pM | B33
10400 pM | B34
718 pM | B35
869 pM | B36
593 pM | B37
7780 pM | B38
718 pM | B39
593 pM | B40

apparent Kd (screen) | Binder
26900 pM | B41
490 pM | B42
1050 pM | B43
539 pM | B44
1860 pM | B45
653 pM | B46
539 pM | B47
1400 pM | B48
2480 pM | B49
1050 pM | B50
2730 pM | B51
2250 pM | B52
22200 pM | B53
490 pM | B54
653 pM | B55
22200 pM | B56
490 pM | B57
490 pM | B58
446 pM | B59
